Source: US20220119534A1 (DRAGONFLY THERAPEUTICS, published 2022)
Numbering of substitutions follows the chain as printed. Names may count otherwise. “And” between values parts separate entries of the source, which are not always exact repeats. Equal entries are not always repeated. Each block holds one binder with its values, some of them ahead of it.

Legend:
Human CLEC12A-His = biological target: T1, Human CLEC12A-His (human, UniProt Q5QGZ9 65-265); assay: cell-based or functional assay
T1 sequence: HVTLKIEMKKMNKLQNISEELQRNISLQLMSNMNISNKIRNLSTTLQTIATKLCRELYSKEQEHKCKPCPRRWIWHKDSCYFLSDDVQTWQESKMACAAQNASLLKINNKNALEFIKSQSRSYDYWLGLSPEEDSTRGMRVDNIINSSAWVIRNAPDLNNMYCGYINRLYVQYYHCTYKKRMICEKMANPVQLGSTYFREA

mFc-hNKG2D [1] = biological target: T2, mFc-hNKG2D (human, UniProt P26718 73-216); assay: SPR Biacore 8K 37 C; mFc-hNKG2D captured on anti-mFc chip, TriNKET as analyte; 1:1 kinetic fit
T2 construct: extracellular domain; Made in house (Dragonfly Tx); the order of tag and ECD follows the name mFc-hNKG2D; also called mFc-tagged human NKG2D; not shown: mouse Fc tag
T2 sequence (looked up): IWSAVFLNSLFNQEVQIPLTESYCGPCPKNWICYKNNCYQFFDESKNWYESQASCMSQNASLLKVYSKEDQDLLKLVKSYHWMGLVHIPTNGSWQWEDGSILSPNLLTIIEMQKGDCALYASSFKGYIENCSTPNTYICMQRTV

[2] = biological target: T3, Human CD16a V158 (FcγRIIIa V158) (human, UniProt P08637 17-208, biotinylated (site not stated)); assay: SPR; biotinylated CD16a V158 captured on SA chip, TriNKET as analyte; 1:1 kinetic fit; control sample, n=3
T3 construct: V158 is the allele name in mature numbering; also called hCD16aV; hCD16a V158
T3 sequence (P08637 17-208 F176V limits assumed): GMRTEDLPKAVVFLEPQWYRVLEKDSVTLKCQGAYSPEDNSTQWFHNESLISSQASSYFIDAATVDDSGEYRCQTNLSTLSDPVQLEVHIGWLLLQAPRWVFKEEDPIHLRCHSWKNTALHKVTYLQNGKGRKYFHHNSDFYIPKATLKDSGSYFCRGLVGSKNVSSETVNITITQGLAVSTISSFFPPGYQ

mFc-hNKG2D [3] = biological target: T2, mFc-hNKG2D; assay: SPR Biacore 8K 37 C; mFc-hNKG2D captured on anti-mFc chip, TriNKET as analyte; steady state fit; control, n=3
[4] = biological target: T4, Human CD16a V158 (FcγRIIIa V158) (human, UniProt P08637 17-208, biotinylated); assay: SPR 25C, average
T4 construct: Bought recombinant receptor; also called hCD16aV; hFcγRIIIa V158
T4 sequence (P08637 17-208 F176V limits assumed): as above

[5] = biological target: T5, mFc-hNKG2D (recombinant mFc-tagged human NKG2D dimer) (human, UniProt P26718 73-216); assay: SPR; control sample
T5 construct: extracellular domain; Made in house; not shown: mouse Fc tag
T5 sequence (looked up): T2 sequence (looked up)

[6] = biological target: T4, Human CD16a V158 (FcγRIIIa V158); assay: SPR; control sample
[7] = biological target: T5, mFc-hNKG2D (recombinant mFc-tagged …); assay: SPR 37C, steady state fit, average
[8] = biological target: T6, Human CLEC12A-His (recombinant, K244 WT) (human, UniProt Q5QGZ9 65-265); assay: SPR, two-state fit; control sample
T6 construct: Made in house (Dragonfly Tx); also called hCLEC12A; hCLEC12A-His; not shown: His tag
T6 sequence: T1 sequence

[9] = biological target: T6, Human CLEC12A-His (recombinant, K244 WT); assay: SPR, two-state fit (kd1); control sample
[10] = biological target: T6, Human CLEC12A-His (recombinant, K244 WT); assay: SPR, untreated CLEC12A, two-state fit (ka1)
[11] = biological target: T6, Human CLEC12A-His (recombinant, K244 WT); assay: SPR, two-state fit (ka1); after low pH hold
[12] = biological target: T6, Human CLEC12A-His (recombinant, K244 WT); assay: SPR, two-state fit; after pH 5.0, 40C, 2 wks
[13] = biological target: T6, Human CLEC12A-His (recombinant, K244 WT); assay: SPR, two-state fit (ka1); after pH 5.0, 40C, 2 wks
[14] = biological target: T6, Human CLEC12A-His (recombinant, K244 WT); assay: SPR, two-state fit (kd1); fully purified protein after low pH hold
Human CD64 = biological target: T7, Human CD64 (human, UniProt P12314 16-288, biotinylated); assay: SPR, human CD64 captured
T7 construct: Bought recombinant receptor; also called hFcγRI; Human CD64 (FcγRI)
T7 sequence (P12314 16-288 limits assumed): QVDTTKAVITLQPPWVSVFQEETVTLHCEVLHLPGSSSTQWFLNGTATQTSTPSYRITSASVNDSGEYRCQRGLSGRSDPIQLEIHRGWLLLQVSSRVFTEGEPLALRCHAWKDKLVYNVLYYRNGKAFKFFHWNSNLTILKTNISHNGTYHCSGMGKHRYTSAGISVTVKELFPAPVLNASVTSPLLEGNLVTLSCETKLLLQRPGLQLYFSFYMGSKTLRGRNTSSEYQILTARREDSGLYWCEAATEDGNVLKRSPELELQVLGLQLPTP

mFc-hNKG2D [15] = biological target: T8, mFc-hNKG2D (human, UniProt P26718 73-216); assay: SPR, 37 C, mFc-hNKG2D captured, kinetic fit
T8 construct: extracellular domain; Recombinant mFc-tagged NKG2D dimer, made in house; also called human NKG2D; not shown: mouse Fc tag
T8 sequence (looked up): T2 sequence (looked up)

[16] = biological target: T9, recombinant human CD16a V158 (human, UniProt P08637 17-208, biotinylated); assay: SPR 25C
T9 construct: also called FcγRIIIa V158; hCD16aV
T9 sequence (P08637 17-208 F176V limits assumed): as the sequence (P08637 17-208 F176V limits assumed) above

[17] = biological target: T10, recombinant human CD16a F158 (human, UniProt P08637 17-208); assay: SPR 25C
T10 construct: also called FcγRIIIa F158
T10 sequence (P08637 17-208 limits assumed): as the sequence (P08637 17-208 F176V limits assumed) above, with V160F counted along it

[18] = biological target: T10, recombinant human CD16a F158; assay: SPR 25C, steady state, average
[19] = biological target: T11, recombinant cynomolgus FcRn (cynomolgus monkey, UniProt Q8SPV9 24-297; Q8SPW0 21-119); assay: SPR 25C, pH 6.0, steady state; pH 6.0; fourth replicate
T11 construct: also called cFcRn; cyno FcRn
T11 sequence (Q8SPV9 24-297 limits assumed, chain 1 of 2): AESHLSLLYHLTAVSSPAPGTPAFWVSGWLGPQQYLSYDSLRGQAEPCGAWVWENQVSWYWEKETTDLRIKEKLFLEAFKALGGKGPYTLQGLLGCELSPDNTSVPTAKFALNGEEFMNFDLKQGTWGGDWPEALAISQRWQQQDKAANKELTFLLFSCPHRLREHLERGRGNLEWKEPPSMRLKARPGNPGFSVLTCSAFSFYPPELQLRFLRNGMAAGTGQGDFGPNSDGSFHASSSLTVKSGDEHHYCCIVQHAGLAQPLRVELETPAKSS
T11 sequence (Q8SPW0 21-119 limits assumed, chain 2 of 2): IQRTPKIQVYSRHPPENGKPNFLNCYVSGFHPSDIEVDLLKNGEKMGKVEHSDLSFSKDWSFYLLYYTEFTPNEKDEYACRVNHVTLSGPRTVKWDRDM

[20] = biological target: T11, recombinant cynomolgus FcRn; assay: SPR 25C, pH 6.0, steady state; pH 6.0; second replicate

- EC50 (nM), lysis of CLEC12A+ PL21 cells by KHYG-1-CD16a cells; HST formulation, 40 C, 4 wks (Human CLEC12A-His): 1.21 nM
- EC50 (nM), lysis of CLEC12A+ PL21 cells by KHYG-1-CD16a cells; control sample (Human CLEC12A-His): 0.17 nM
- koff (mFc-hNKG2D [1]): 0.126 s⁻¹ and 0.13 s⁻¹ and 0.131 s⁻¹ and 0.132 s⁻¹
- kon (mFc-hNKG2D [1]): 180000 M⁻¹ s⁻¹ and 184000 M⁻¹ s⁻¹ and 175000 M⁻¹ s⁻¹
- Kd [2]: 212 nM
- koff [2]: 0.024 s⁻¹
- kon [2]: 113000 M⁻¹ s⁻¹
- Kd (mFc-hNKG2D [3]): 710 nM
B1: F3'-1602 TriNKET (bispecific antibody, human IgG1, kappa)
chain: QLQLQESGPGLVKPSETLSLTCTVSGFSLTNYGLHWIRQPPGKCLEWIGVIWSGGKTDYNPSLKSRVTISKDTSKNQFSLKLSSVQAADTAVYYCAKYDYDDSLDYWGQGTLVTVSSGGGGSGGGGSGGGGSGGGGSDIQMTQSPSSLSASVGDRVTITCHASQNINFWLSWYQQKPGKAPKLLIYEASNLHTGVPSRFSGSGSGTRFTLTISSLQPEDIATYYCQQSHSYPLTFGCGTKLEIKGSDKTHTCPPCPAPELLGGPSVFLFPPKPKDTLMISRTPEVTCVVVDVSHEDPEVKFNWYVDGVEVHNAKTKPREEQYNSTYRVVSVLTVLHQDWLNGKEYKCKVSNKALPAPIEKTISKAKGQPREPRVYTLPPCRDELTKNQVSLTCLVKGFYPSDIAVEWESNGQPENNYKTTPPVLVSDGSFTLYSKLTVDKSRWQQGNVFSCSVMHEALHNHYTQKSLSLSPG
heavy: EVQLVESGGGLVKPGGSLRLSCAASGFTFSSYSMNWVRQAPGKGLEWVSSISSSSSYIYYADSVKGRFTISRDNAKNSLYLQMNSLRAEDTAVYYCARGAPIGAAAGWFDPWGQGTLVTVSSASTKGPSVFPLAPSSKSTSGGTAALGCLVKDYFPEPVTVSWNSGALTSGVHTFPAVLQSSGLYSLSSVVTVPSSSLGTQTYICNVNHKPSNTKVDKKVEPKSCDKTHTCPPCPAPELLGGPSVFLFPPKPKDTLMISRTPEVTCVVVDVSHEDPEVKFNWYVDGVEVHNAKTKPREEQYNSTYRVVSVLTVLHQDWLNGKEYKCKVSNKALPAPIEKTISKAKGQPREPQVCTLPPSRDELTENQVSLTCLVKGFYPSDIAVEWESNGQPENNYKTTPPVLDSDGSFFLYSWLTVDKSRWQQGNVFSCSVMHEALHNHYTQKSLSLSPG
light: DIQMTQSPSSVSASVGDRVTITCRASQGISSWLAWYQQKPGKAPKLLIYAASSLQSGVPSRFSGSGSGTDFTLTISSLQPEDFATYYCQQGVSFPRTFGGGTKVEIKRTVAAPSVFIFPPSDEQLKSGTASVVCLLNNFYPREAKVQWKVDNALQSGNSQESVTEQDSKDSTYSLSSTLTLSKADYEKHKVYACEVTHQGLSSPVTKSFNRGEC
notes: Trispecific F3' format: CLEC12A scFv-Fc paired with NKG2D Fab-Fc; Stressed and control samples of the stability studies are the same molecule; also called AB0237

- Kd [4]: 333 nM
- koff [4]: 0.0277 s⁻¹
- kon [4]: 83100 M⁻¹ s⁻¹
- Kd [5]: 797 nM
- koff [5]: 0.135 s⁻¹
- kon [5]: 169000 M⁻¹ s⁻¹
- Kd [6]: 322 nM
- koff [6]: 0.0278 s⁻¹
- kon [6]: 86400 M⁻¹ s⁻¹
- Kd [7]: 884 nM
- Kd [8]: 0.9 nM
- koff [9]: 0.042 s⁻¹
- kon [10]: 1.63e+07 M⁻¹ s⁻¹
- kon [11]: 1.11e+07 M⁻¹ s⁻¹
- Kd [12]: 1 nM
- kon [13]: 8.62e+06 M⁻¹ s⁻¹
- koff [14]: 0.0276 s⁻¹
B2: AB0089 TriNKET (bispecific antibody, human IgG1, kappa)
chain: B1 chain with S53V, K56A, K71V, Y98G, D101G, S103T, R207D, I220F
heavy: B1 heavy
light: B1 light
notes: F3' format heterodimer of three chains; human IgG1 Fc with EW-RVT and Y349C/S354C mutations; also called AB0089 Lot AB0089-002; CLEC12A TriNKET AB0089

- Kd (Human CD64): 6.1 nM and 5.5 nM and 3.5 nM
- koff (Human CD64): 0.00029 s⁻¹ and 0.00026 s⁻¹ and 0.00018 s⁻¹
- kon (Human CD64): 47000 M⁻¹ s⁻¹ and 52000 M⁻¹ s⁻¹
- Kd (mFc-hNKG2D [15]): 770 nM and 778 nM and 790 nM
B3: AB0192 TriNKET (other)
chain: EVQLVESGGGVVQPGGSLRLSCAASGFTFNAFGMHWVRQAPGKCLEWVAFISSGSTSIYYANTVKGRFTISRDNSKNTLYLQMNSLRAEDTAVYYCARDGYPTGGAMDYWGQGTSVTVSSGGGGSGGGGSGGGGSGGGGSDIQMTQSPSSLSASVGDRVTITCKASQDIYNYLSWFQQKPGKAPKPLIYRANILVSGVPSRFSGSGSGQDYTFTISSLQPEDIATYYCLQFDAFPFTFGCGTKLEIKGSDKTHTCPPCPAPELLGGPSVFLFPPKPKDTLMISRTPEVTCVVVDVSHEDPEVKFNWYVDGVEVHNAKTKPREEQYNSTYRVVSVLTVLHQDWLNGKEYKCKVSNKALPAPIEKTISKAKGQPREPRVYTLPPCRDELTKNQVSLTCLVKGFYPSDIAVEWESNGQPENNYKTTPPVLVSDGSFTLYSKLTVDKSRWQQGNVFSCSVMHEALHNHYTQKSLSLSPG
heavy: B1 heavy
light: B1 light
notes: the condition stands under assay; also called AB0192 Lot AB0192-005

- fold difference in affinity vs trastuzumab [16]: ≤ 3 fold
- fold difference in affinity vs trastuzumab [17]: ≤ 3 fold
- Kd [18]: 1110 nM
- Kd [19]: 1500 nM
- Kd [20]: 1100 nM
B4: F3'-1602 TriNKET (other)
chain: B1 chain
heavy: B1 heavy
light: B1 light
notes: CLEC12A scFv-Fc, NKG2D A49MI Fab-Fc, human IgG1 Fc; also called AB0237
